The RNAGym collection of RNA variant scans (doi:10.7554/elife.90254)

B1: LINE1-mini (parent)
chain: GGCAGAGCUCAACACAGCGUGGCAAAGUGGCUGUGGCUAGACUGCC

Variants of: B1
Assay: self-cleavage, relative activity (ratio to wild type); higher = more cleavage; in vitro, sequencing; the parent is a self-cleaving ribozyme

Question: With A4C G29A as the variant, how does the self-cleavage read?
Answer: 0.07

Question: With A4C G29U as the variant, how does the self-cleavage read?
Answer: 0.45

Question: For A4C G29C, which self-cleavage is on record?
Answer: 0.24

Question: Which self-cleavage does the source give for A4C U38A here?
Answer: 0.12

Question: Which self-cleavage does the source give for A4C U38C here?
Answer: 0.12

Question: For A4C U38G, which self-cleavage is on record?
Answer: 0.04

Question: For A4C G36A, which self-cleavage is on record?
Answer: 0.73

Question: For A4C G36C, which self-cleavage is on record?
Answer: 0.09

Question: Which self-cleavage does the source give for A4C G36U here?
Answer: 0.1

Question: For C3U U32C, which self-cleavage is on record?
Answer: 0.19

Question: Which self-cleavage does the source give for C3U U32A here?
Answer: 0.07

Question: With C3U U32G as the variant, how does the self-cleavage read?
Answer: 0.09

Question: With A4C as the variant, how does the self-cleavage read?
Answer: 0.19

Question: For A4G, which self-cleavage is on record?
Answer: 0.5

Question: For A4C C37G, which self-cleavage is on record?
Answer: 0.05

Question: With A4C C37A as the variant, how does the self-cleavage read?
Answer: 0.28

Question: With A4C C37U as the variant, how does the self-cleavage read?
Answer: 0.16

Question: For A4C C42G, which self-cleavage is on record?
Answer: 0.05

Question: For A4C C42A, which self-cleavage is on record?
Answer: 0.13

Question: For A4C C42U, which self-cleavage is on record?
Answer: 0.2

Question: With C3U U38C as the variant, how does the self-cleavage read?
Answer: 0.19

Question: With C3U U38G as the variant, how does the self-cleavage read?
Answer: 0.04

Question: Which self-cleavage does the source give for C3U U38A here?
Answer: 0.19

Question: For C3U U34A, which self-cleavage is on record?
Answer: 0.06

Question: Which self-cleavage does the source give for C3U U34G here?
Answer: 0.07

Question: Which self-cleavage does the source give for C3U U34C here?
Answer: 0.07

Question: For C3U U20G, which self-cleavage is on record?
Answer: 0.28

Question: With C3U U20C as the variant, how does the self-cleavage read?
Answer: 0.15

Question: For C3U U20A, which self-cleavage is on record?
Answer: 0.28

Question: For A4C U43C, which self-cleavage is on record?
Answer: 0.08

Question: With A4C U43G as the variant, how does the self-cleavage read?
Answer: 0.17

Question: Which self-cleavage does the source give for A4C U43A here?
Answer: 0.06

Question: Which self-cleavage does the source give for A4C C13U here?
Answer: 0.35

Question: With A4C C13G as the variant, how does the self-cleavage read?
Answer: 0.17

Question: For A4C C13A, which self-cleavage is on record?
Answer: 0.15

Question: With A4C G5C as the variant, how does the self-cleavage read?
Answer: 0.08

Question: For A4C G5A, which self-cleavage is on record?
Answer: 0.12

Question: With A4C G5U as the variant, how does the self-cleavage read?
Answer: 0.21

Question: With A4C C45G as the variant, how does the self-cleavage read?
Answer: 0.17

Question: Which self-cleavage does the source give for A4C C45A here?
Answer: 0.12

Question: Which self-cleavage does the source give for A4C C45U here?
Answer: 0.2

Question: With A4C A25G as the variant, how does the self-cleavage read?
Answer: 0.12

Question: Which self-cleavage does the source give for A4C A25C here?
Answer: 0.06

Question: Which self-cleavage does the source give for A4C A25U here?
Answer: 0.13

Question: Which self-cleavage does the source give for A4C C8A here?
Answer: 0.32

Question: Which self-cleavage does the source give for A4C C8U here?
Answer: 0.22

Question: With A4C C8G as the variant, how does the self-cleavage read?
Answer: 0.07

Question: For A4C U34C, which self-cleavage is on record?
Answer: 0.15

Question: With A4C U34G as the variant, how does the self-cleavage read?
Answer: 0.02

Question: With A4C U34A as the variant, how does the self-cleavage read?
Answer: 0

Question: Which self-cleavage does the source give for A4C C18A here?
Answer: 0.07

Question: With A4C C18G as the variant, how does the self-cleavage read?
Answer: 0.11

Question: For A4C C18U, which self-cleavage is on record?
Answer: 0.05

Question: For A4G A14C, which self-cleavage is on record?
Answer: 0.12

Question: With A4G A14U as the variant, how does the self-cleavage read?
Answer: 0.24

Question: Which self-cleavage does the source give for A4G A14G here?
Answer: 0.2

Question: Which self-cleavage does the source give for A4C C10G here?
Answer: 0.03

Question: With A4C C10U as the variant, how does the self-cleavage read?
Answer: 0.09

Question: Which self-cleavage does the source give for A4C C10A here?
Answer: 0.04

Question: For A4C U28C, which self-cleavage is on record?
Answer: 0.22

Question: Which self-cleavage does the source give for A4C U28A here?
Answer: 0.07

Question: Which self-cleavage does the source give for A4C U28G here?
Answer: 0.18

Question: For A4C G44U, which self-cleavage is on record?
Answer: 0.13

Question: Which self-cleavage does the source give for A4C G44A here?
Answer: 0.16

Question: For A4C G44C, which self-cleavage is on record?
Answer: 0.12

Question: With A4C G33U as the variant, how does the self-cleavage read?
Answer: 0.06

Question: With A4C G33C as the variant, how does the self-cleavage read?
Answer: 0.04

Question: For A4C G33A, which self-cleavage is on record?
Answer: 0.29

Question: With A4C G17C as the variant, how does the self-cleavage read?
Answer: 0.08

Question: With A4C G17A as the variant, how does the self-cleavage read?
Answer: 0.08

Question: With A4C G17U as the variant, how does the self-cleavage read?
Answer: 0.08

Question: For A4C A24C, which self-cleavage is on record?
Answer: 0.09

Question: Which self-cleavage does the source give for A4C A24U here?
Answer: 0.17

Question: Which self-cleavage does the source give for A4C A24G here?
Answer: 0.14

Question: For A4C A26U, which self-cleavage is on record?
Answer: 0.11

Question: With A4C A26G as the variant, how does the self-cleavage read?
Answer: 0.15

Question: With A4C A26C as the variant, how does the self-cleavage read?
Answer: 0.1

Question: Which self-cleavage does the source give for C3U G44U here?
Answer: 0.23

Question: For C3U G44C, which self-cleavage is on record?
Answer: 0.35

Question: With A4C A41G as the variant, how does the self-cleavage read?
Answer: 0.07

Question: Which self-cleavage does the source give for A4C A41C here?
Answer: 0.12

Question: With A4C A41U as the variant, how does the self-cleavage read?
Answer: 0.23

Question: For A4C A14G, which self-cleavage is on record?
Answer: 0.1

Question: For A4C A14U, which self-cleavage is on record?
Answer: 0.22

Question: Which self-cleavage does the source give for A4C A14C here?
Answer: 0.1

Question: For A4C C23U, which self-cleavage is on record?
Answer: 0.16

Question: Which self-cleavage does the source give for A4C C23A here?
Answer: 0.25

Question: With A4C C23G as the variant, how does the self-cleavage read?
Answer: 0.23

Question: Which self-cleavage does the source give for A4C G7U here?
Answer: 0.21

Question: For A4C G7C, which self-cleavage is on record?
Answer: 0.17

Question: Which self-cleavage does the source give for A4C G7A here?
Answer: 0.87

Question: Which self-cleavage does the source give for A4C A6U here?
Answer: 0.11

Question: With A4C A6C as the variant, how does the self-cleavage read?
Answer: 0.09

Question: With A4C A6G as the variant, how does the self-cleavage read?
Answer: 0.37

Question: With A4C C46A as the variant, how does the self-cleavage read?
Answer: 0.14

Question: For A4C C46U, which self-cleavage is on record?
Answer: 0.18

Question: Which self-cleavage does the source give for A4C C46G here?
Answer: 0.13

Question: For A4C U32A, which self-cleavage is on record?
Answer: 0.18

Question: For A4C U32G, which self-cleavage is on record?
Answer: 0.1

Question: With A4C U32C as the variant, how does the self-cleavage read?
Answer: 0.1

Question: With C3U U9C as the variant, how does the self-cleavage read?
Answer: 0.07

Question: Which self-cleavage does the source give for C3U U9G here?
Answer: 0.15

Question: Which self-cleavage does the source give for C3U U9A here?
Answer: 0.29

Question: Which self-cleavage does the source give for A4C A11C here?
Answer: 0.04

Question: With A4C A11U as the variant, how does the self-cleavage read?
Answer: 0.04

Question: With A4C A11G as the variant, how does the self-cleavage read?
Answer: 0.04

Question: For A4C A16G, which self-cleavage is on record?
Answer: 0.09

Question: With A4C A16U as the variant, how does the self-cleavage read?
Answer: 0.05

Question: For A4C A16C, which self-cleavage is on record?
Answer: 0.04

Question: With A4C U20A as the variant, how does the self-cleavage read?
Answer: 0.08

Question: Which self-cleavage does the source give for A4C U20C here?
Answer: 0.05

Question: For A4C U20G, which self-cleavage is on record?
Answer: 0.1

Question: For A4G A24C, which self-cleavage is on record?
Answer: 0.25

Question: Which self-cleavage does the source give for A4C G30A here?
Answer: 0.24

Question: Which self-cleavage does the source give for A4C G30C here?
Answer: 0.07

Question: For A4C G30U, which self-cleavage is on record?
Answer: 0.19

Question: Which self-cleavage does the source give for A4C C15A here?
Answer: 0.1

Question: For A4C C15G, which self-cleavage is on record?
Answer: 0.04

Question: For A4C C15U, which self-cleavage is on record?
Answer: 0.13

Question: With A4C U9A as the variant, how does the self-cleavage read?
Answer: 0.18

Question: With A4C U9C as the variant, how does the self-cleavage read?
Answer: 0.04

Question: With A4C U9G as the variant, how does the self-cleavage read?
Answer: 0.24

Question: For A4G A16C, which self-cleavage is on record?
Answer: 0.12

Question: With A4G A16G as the variant, how does the self-cleavage read?
Answer: 0.16

Question: With A4G A16U as the variant, how does the self-cleavage read?
Answer: 0.16

Question: For A4C A12C, which self-cleavage is on record?
Answer: 0.03

Question: Which self-cleavage does the source give for A4C A12G here?
Answer: 0.06

Question: Which self-cleavage does the source give for A4C A12U here?
Answer: 0.17

Question: With A4C G19C as the variant, how does the self-cleavage read?
Answer: 0.07

Question: Which self-cleavage does the source give for A4C G19U here?
Answer: 0.06

Question: Which self-cleavage does the source give for A4C G19A here?
Answer: 0.28

Question: For A4G A11U, which self-cleavage is on record?
Answer: 0.05

Question: With A4G A11G as the variant, how does the self-cleavage read?
Answer: 0.12

Question: With A4G A11C as the variant, how does the self-cleavage read?
Answer: 0.04

Question: Which self-cleavage does the source give for A4C G40A here?
Answer: 0.16

Question: Which self-cleavage does the source give for A4C G40U here?
Answer: 0.13

Question: Which self-cleavage does the source give for A4C G40C here?
Answer: 0.12

Question: For A4C A39C, which self-cleavage is on record?
Answer: 0.07

Question: For A4C A39G, which self-cleavage is on record?
Answer: 0.9

Question: Which self-cleavage does the source give for A4C A39U here?
Answer: 0.09

Question: Which self-cleavage does the source give for A4G A6U here?
Answer: 0.27

Question: With A4G A6G as the variant, how does the self-cleavage read?
Answer: 0.11

Question: For A4G A6C, which self-cleavage is on record?
Answer: 0.14

Question: Which self-cleavage does the source give for A4C G21A here?
Answer: 0.42

Question: With A4C G21U as the variant, how does the self-cleavage read?
Answer: 0.21

Question: With A4C G21C as the variant, how does the self-cleavage read?
Answer: 0.18

Question: For A4C C31G, which self-cleavage is on record?
Answer: 0.06

Question: With A4C C31U as the variant, how does the self-cleavage read?
Answer: 0.06

Question: For A4C C31A, which self-cleavage is on record?
Answer: 0.14

Question: With A4C G35A as the variant, how does the self-cleavage read?
Answer: 0.17

Question: For A4C G35C, which self-cleavage is on record?
Answer: 0.11

Question: Which self-cleavage does the source give for A4C G35U here?
Answer: 0.18

Question: With A4G A12U as the variant, how does the self-cleavage read?
Answer: 0.11

Question: With A4G A12C as the variant, how does the self-cleavage read?
Answer: 0.03

Question: With A4G A12G as the variant, how does the self-cleavage read?
Answer: 0.05

Question: Which self-cleavage does the source give for C3U U28C here?
Answer: 0.24

Question: Which self-cleavage does the source give for C3U U28G here?
Answer: 0.23

Question: Which self-cleavage does the source give for C3U U28A here?
Answer: 0.4

Question: With A4C G27C as the variant, how does the self-cleavage read?
Answer: 0.07

Question: Which self-cleavage does the source give for A4C G27U here?
Answer: 0.07

Question: With A4C G27A as the variant, how does the self-cleavage read?
Answer: 0.17

Question: With A4C G22A as the variant, how does the self-cleavage read?
Answer: 0.09

Question: For A4C G22C, which self-cleavage is on record?
Answer: 0.08

Question: With A4C G22U as the variant, how does the self-cleavage read?
Answer: 0.52

Question: For C3U U43A, which self-cleavage is on record?
Answer: 0.14

Question: Which self-cleavage does the source give for C3U U43C here?
Answer: 0.09

Question: For C3U U43G, which self-cleavage is on record?
Answer: 0.2
